Measured values: patent publication US20250002566A1 (FUNDA O OSWALDO CRUZ, published 2025)

What was measured:
[1] = biological target: DENV1 envelope (E) protein on virus particles (strain PE/97-42735) (Dengue virus 1); assay: cell-based or functional assay
[2] = biological target: DENV2 envelope (E) protein on virus particles (strain PE/95-3808) (Dengue virus 2); assay: cell-based or functional assay
[3] = biological target: T1, ZIKV Envelope (E) protein, recombinant, in its dimeric form (Native Antigen, UK) (Zika virus); assay: thermal unfolding of the ZVPA3-E(Dimer) complex at the estimated stoichiometry, compared with ZVPA3 alone
T1 chain: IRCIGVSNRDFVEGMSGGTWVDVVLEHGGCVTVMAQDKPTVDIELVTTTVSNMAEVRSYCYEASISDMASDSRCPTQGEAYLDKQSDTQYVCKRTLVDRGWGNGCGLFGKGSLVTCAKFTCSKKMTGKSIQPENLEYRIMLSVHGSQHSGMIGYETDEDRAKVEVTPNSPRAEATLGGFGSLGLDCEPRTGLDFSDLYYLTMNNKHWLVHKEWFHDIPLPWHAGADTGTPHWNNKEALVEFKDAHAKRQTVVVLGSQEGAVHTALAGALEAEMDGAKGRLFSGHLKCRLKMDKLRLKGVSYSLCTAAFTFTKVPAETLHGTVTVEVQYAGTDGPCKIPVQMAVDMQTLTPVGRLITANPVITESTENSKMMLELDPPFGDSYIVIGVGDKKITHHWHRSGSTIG

[4] = biological target: T1, ZIKV Envelope (E) protein, recombinant, …; assay: estimated from MST concentrations at maximum binding (ca. 3x10^13 E dimer molecules with ca. 8x10^12 ZVPA3 molecules)
[5] = biological target: T1, ZIKV Envelope (E) protein, recombinant, …; assay: microscale thermophoresis (MST), 150 nM dye-labelled ZIKV E, ZVPA3 titrated in 16 serial 1:2 dilutions, three independent experiments

B1: ZVPA3 (designed binder)
chain: MGSSHHHHHHSSGLVPRGSHMAKGDPHVLLTTSAGNIELELDSQKAPVSVQNFLDYVNNGFYNNTTFHSVIPGYMIQGGGYTEDMQQKQPNPPIKNEADNGLRNTRGTIAMMRTEDKDSATSQFFINVADNAYADHGQTRYGFAVFGKVVKGMDVADKISQVPTHDVGPYQSVPSKPVVILSATVLPGSGC
notes: Produced as a monomer, ca. 20 kDa; In the MST with virus particles ZVPA3 carried the RED NT-647-NHS dye; The crystal structure of ZVPA3 alone is PDB 7ZFM; also called ZVAP3; designed protein
In the case of B1, the “EC50, plaque reduction neutralization test (PRNT) of DENV1 on Vero cells” value [1] is reported as 870 nM, the “EC50, plaque reduction neutralization test (PRNT) of DENV2 on Vero cells” value [2] is reported as 980 nM and the “stability gain of the complex against ZVPA3 alone (thermal unfolding)” value [3] is reported as ~5 ° C. The “stoichiometry ratio ZVPA3:E(Dimer)” value [4] was 3.75 E(Dimer) per ZVPA3 and the Kd [5] was 86.6 nM.
